Experimental data reported in patent US20140328762A1 (published 2014).

How the values were obtained:
[1] = biological target: JunLZ-Sb1b3 beacon (UniProt P0AEX9 27-392 = MBP); test: fluorescence screening assay (FIG. 11)
Description: (§1) The graphs show a comparison of binding-induced fluorescence enhancement of JunLZ beacons. Concentration for all beacons is 1.0 and concentration of FosLZ or scrFosLZ is 10.0 μM. The assay was carried out in 0.1 M PBS, pH7.2 at room temperature. […] Numbers above the curves represent signal to noise ratios calculated from the maxim emission values that centered around 585 nm.
(§2) The purified fusion proteins were used directly without removing the MBP fusion partner. To prepare the beacons, TAMRA fluorophores were attached to the fusion proteins via the maleimide chemistry.

[2] = biological target: JunLZ-Sb1b4 beacon (UniProt P0AEX9 27-392 = MBP); test: fluorescence screening assay (FIG. 11)
Description: as §1, §2

[3] = biological target: JunLZ-Sb3b5 beacon (UniProt P0AEX9 27-392 = MBP); test: fluorescence screening assay (FIG. 11)
Description: as §1, §2

[4] = biological target: JunLZ-Lb1b4 beacon (UniProt P0AEX9 27-392 = MBP); test: fluorescence emission screening (FIG. 11)
Description: as §1, §2

[5] = biological target: JunLZ-Lb1b3 beacon (UniProt P0AEX9 27-392 = MBP); test: fluorescence emission screening (FIG. 11)
Description: as §1, §2

[6] = biological target: JunLZ-Lb3b5 beacon (UniProt P0AEX9 27-392 = MBP); test: fluorescence emission screening (FIG. 11)
Description: as §1, §2

[7] = biological target: JunLZ-Lb2b5 beacon (UniProt P0AEX9 27-392 = MBP); test: fluorescence emission screening (FIG. 11)
Description: as §1, §2

Measured: binding result

B1: scrFosLZ (MBP-scrFosLZ, fusion protein of MBP and the scrambled cFos leucine zipper) (other, not shown: large carriers)
chain: GGSGGTDTAQAETDQAEDEKSAAQTEIANALKEKEKAEFILA
notes: Negative control; also called scrambled FosLZ
no binding (tested: 10.0 µM): all assays above
